This is an account of results in paper PMC3381998.

One experiment has as its target SEPT6 (UniProt Q14141). Put plainly: co-IP.
For a further experiment, the target named is SEPT7 (UniProt Q16181). Put plainly: co-IP.
Chain of SEPT7 (Q16181 whole entry): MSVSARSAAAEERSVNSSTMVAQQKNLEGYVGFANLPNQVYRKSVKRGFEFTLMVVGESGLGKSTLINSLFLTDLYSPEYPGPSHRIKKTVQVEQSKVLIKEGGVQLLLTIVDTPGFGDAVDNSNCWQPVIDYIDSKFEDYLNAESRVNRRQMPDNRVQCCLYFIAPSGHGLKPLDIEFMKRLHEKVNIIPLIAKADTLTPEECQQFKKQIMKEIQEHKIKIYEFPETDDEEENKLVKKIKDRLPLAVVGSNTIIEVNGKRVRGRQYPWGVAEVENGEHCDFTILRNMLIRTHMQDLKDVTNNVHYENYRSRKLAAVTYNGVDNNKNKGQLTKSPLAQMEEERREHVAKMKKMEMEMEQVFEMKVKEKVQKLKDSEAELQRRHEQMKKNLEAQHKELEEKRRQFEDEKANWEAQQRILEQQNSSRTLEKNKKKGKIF

Chain of SEPT6 (Q14141 whole entry): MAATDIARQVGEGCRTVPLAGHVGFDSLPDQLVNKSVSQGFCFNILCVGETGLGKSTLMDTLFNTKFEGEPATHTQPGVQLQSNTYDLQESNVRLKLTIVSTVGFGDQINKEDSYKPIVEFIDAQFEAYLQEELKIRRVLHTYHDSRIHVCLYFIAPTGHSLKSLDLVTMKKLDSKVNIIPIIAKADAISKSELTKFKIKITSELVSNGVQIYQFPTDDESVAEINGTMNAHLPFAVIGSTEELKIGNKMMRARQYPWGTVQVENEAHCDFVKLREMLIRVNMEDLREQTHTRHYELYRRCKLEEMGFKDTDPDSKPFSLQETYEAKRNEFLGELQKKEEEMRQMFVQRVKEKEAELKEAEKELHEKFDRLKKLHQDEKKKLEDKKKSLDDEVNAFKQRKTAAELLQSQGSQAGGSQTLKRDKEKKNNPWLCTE

In the experiment with SEPT6, “SEPT7 (from UniProt Q16181 1-437) (natural protein)” had a percent of SEPT7 depleted on immunodepletion of SEPT6 of 30% and a percent of SEPT7 that interacts with SEPT6 of 43%. Consider “SEPT6 (from UniProt Q14141 1-434) (natural protein)”, for which the percent of total SEPT6 precipitated with SEPT7 with SEPT7 stood at 24%.
